# Assay results taken from patent US12102667B2, “Polypeptides and antibiotics against gram-negative bacterium comprising the same” (priority 2021, dated 2024).
# Legend:
# E. coli [1] = assay: Checkerboard assay (MIC in combination, FIC index); assay type: cell-based, Escherichia coli
# Outline: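 Against E. coli at 10^6 CFU/ml in CAA medium, LNT113 and antibiotic were 2-fold serially diluted in checkerboard format.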
# Salmonella typhimurium = assay: MIC, broth microdilution; assay type: cell-based
# Method: (§1) The MIC of the LNT113 or antibiotic was determined using modification of the broth microdilution method in a 96-well, round bottom, microplate according to the previously described method (Heselpoth et al., 2019). Exponentially grown cells were diluted to a concentration of 10^6 CFU/ml in a CAA medium, and then cultured with recombinant LNT113 (1-64 μg/ml) or antibiotics at 35° C. for 20 hours. […] The MBC was defined as the lowest concentration of the antibacterial agent with no growth on a plate. All analyses were performed in duplicate.
# Salmonella enteritidis = assay: MIC, broth microdilution; assay type: cell-based
# Method: as §1
# E. coli ATCC 8739 = assay: 1-N-phenylnaphthylamine (NPN) absorption analysis, outer membrane permeability; assay type: cell-based, Escherichia coli; conditions: 2 μM
# Method: NPN absorption analysis was performed by the previously described method (Helander and Mattila-Sandholm, 2000). In other words, E. coli ATCC 8739 grown to an exponential phase (OD600=0.4) was washed and resuspended with buffer solution (5 mM HEPES, pH 7.2) to about 10^8 cells/ml. 40 μM NPN (Sigma-Aldrich) 50 μl was mixed with the purified endolysin or Cecropin A (AbClon, Korea) 50 μl so that the final concentration was 2 μM in a 96-well black plate. Outer membrane permeation agents, 1 mM EDTA (Duchefa) and 2 μM Polymyxin B (Sigma-Aldrich) were used as a positive control group. Then, cell suspension 100 μl was added to each well, and cultured at 37° C. for 5 minutes. Buffer alone, buffer+NPN, cell suspension+buffer and cell suspension+buffer+NPN were used as a negative control group. Fluorescence was measured at excitation (350 nm) and emission (420 nm) using a microplate reader (SpectraMax iD3, Molecular Devices, USA). An NPN absorption factor was calculated by dividing the fluorescence value after background removal (the value that the value without NPN subtracted from the fluorescence value of the cell mixture with the sample) with the fluorescence value of the cell suspension with buffer subtracted from the fluorescence value of buffer without NPN.
# K. pneumoniae [2] = assay: Antibacterial activity analysis (colony count after 2 hours in buffer); assay type: cell-based, Klebsiella pneumoniae; conditions: 2 μM
# Method: The antibacterial activity of the purified protein was tested for E. coli and various K. pneumoniae strains. The bacterium were grown to an exponential phase (OD600=0.5) and harvested by centrifugation at 12,000×g for 3 minutes. Then, the pellets were washed with reaction buffer solution (20 mM Tris-HCl, pH 7.5) and diluted to about 10^6 cells/ml in the buffer solution. Then, 100 μl bacterial suspension was mixed with the purified endolysin of 100 μl in the reaction buffer solution and incubated at 37° C. for 2 hours. Finally, the mixture was diluted with PBS and loaded on an LB plate. After culturing at 37° C. overnight, the bacterial colonies were counted. All the analysis was performed in triplicate.
# The same reaction was performed for the selected subject bacterium in 20 mM HEPES-NaOH, 150 mM NaCl [pH 7.4], and the unique antibacterial activity of Tris and dependence of endolysin for turgor pressure were excluded (FIG. 10a and FIG. 10b). […] The bacterial cells grown geometrically were cultured with 2 μM endolysin in low tonicity buffers (20 mM Tris-HCl, pH 7.5 or 20 mM HEPES, pH 7.5) or high tonicity buffers (buffer solution comprising 150 mM NaCl) at 37° C. for 2 hours. The cells treated with storage buffer solution (20 mM Tris-HCl, pH 7.5, 150 mM NaCl buffer solution (pH 7.5)) were used as a negative control group. The dotted line represents the detection limit (1 Log CFU/ml).
# K. acrogenes = assay: MIC, broth microdilution; assay type: cell-based, Klebsiella aerogenes
# Method: as §1
# E. coli [3] = assay: Antibacterial activity analysis (colony count after 2 hours in buffer); assay type: cell-based, Escherichia coli
# Outline: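 Exponential-phase cells (OD600=0.5) washed and diluted to about 10^6 cells/ml in 20 mM Tris-HCl, pH 7.5, then incubated with 2 μM endolysin at 37° C. for 2 hours. Surviving bacteria counted as colonies on LB plates after overnight culture at 37° C.; triplicate; detection limit 1 Log CFU/ml.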
# K. pneumoniae [4] = assay: MIC, broth microdilution; assay type: cell-based, Klebsiella pneumoniae
# Method: as §1
molecule,measurement,setting,value
"LNT113: fusion polypeptide: Cecropin A, (GGGGS)3 linker, mutant endolysin mtEC340; recombinant form with C-terminal His tag (protein, synthetic_Met+Cecropin A+GGGGS3 linker+mtEC340, fusion polypeptide: Cecropin A, (GGGGS)3 linker, mutant endolysin mtEC340; recombinant form with C-terminal His tag) MKWKLFKKIEKVGQNIRDGIIKAGPAVAVVGQATQIAKGGGGSGGGGSGGGGSVSRNISNNGIKFTAAFEGFRGTAYRATPNEKYLTIGYGSYGPHVEPGKTITPGQGLLLLNRDMAKAVAAVDAVAHHSLTQSQFDAVCDLVYNAGAGVIAAATGTGKALRSGDVATLRAKLALFINQNGKPLLGLRRRTAGRLALFDGKPWQEAEAIGRAVKG",MIC of endolysin combined with colistin: LNT113,"E. coli [1]; E. coli ATOCB739, Colistin 0",8 µg/mL
same,MIC of endolysin combined with colistin: LNT113,"E. coli [1]; E. coli ATOCB739, Colistin 0.0625",4 µg/mL
same,MIC of endolysin combined with colistin: LNT113,"E. coli [1]; E. coli ATOCB739, Colistin 0.5",2 µg/mL
same,MIC of endolysin combined with colistin: LNT113,"E. coli [1]; E. coli ATOCB739, Colistin 1",1 µg/mL
same,MIC of endolysin combined with colistin: LNT113,"E. coli [1]; E. coli FORC81, Colistin 0",8 µg/mL
same,MIC of endolysin combined with colistin: LNT113,"E. coli [1]; E. coli FORC81, Colistin 1",4 µg/mL
same,MIC of endolysin combined with colistin: LNT113,"E. coli [1]; E. coli FORC81, Colistin 4",2 µg/mL
same,MIC of endolysin combined with colistin: LNT113,"E. coli [1]; E. coli FORC81, Colistin 8",<0.25 µg/mL
same,MIC of endolysin combined with colistin: LNT113,"E. coli [1]; E. coli UPEC3150, Colistin 0",8 µg/mL
same,MIC of endolysin combined with colistin: LNT113,"E. coli [1]; E. coli UPEC3150, Colistin 0.0625",4 µg/mL
same,MIC of endolysin combined with colistin: LNT113,"E. coli [1]; E. coli UPEC3150, Colistin 0.5",2 µg/mL
same,MIC of endolysin combined with colistin: LNT113,"E. coli [1]; E. coli UPEC3150, Colistin 2",1 µg/mL
same,MIC,Salmonella typhimurium,> 64 µg/mL
same,MIC,Salmonella enteritidis,> 64 µg/mL
same,increase of membrane penetration (NPN),E. coli ATCC 8739,1.8 times
same,membrane penetration relative to cecropin A alone (NPN),E. coli ATCC 8739,1.3 fold
same,antibacterial activity (number of bacterium),"K. pneumoniae [2]; K. pneumoniae ATCC700603, KCTC2208, CCARM10143, F85, 2 hours, Tris-HCl pH 7.5",more excellent antibacterial activity
same,effect of adding NaCl on antibacterial activity,"K. pneumoniae [2]; K. pneumoniae KCTC 2208, Tris or Hepes buffer with 150 mM NaCl",negative effect of salt presence was significantly reduced
same,increase in activity compared to mtEC340,"K. pneumoniae [2]; K. pneumoniae strains, 2 hours",≤ 4 log
same,viable bacterial cells after culturing for 2 hours,K. pneumoniae [2]; all tested K. pneumoniae strains,No viable bacterial cells were detected
same,MIC,K. acrogenes; K. acrogenes CCARM 16006,16 µg/mL
same,MIC,K. acrogenes; K. acrogenes CCARM 16008,8 µg/mL
same,MIC,K. acrogenes; K. acrogenes CCARM 16010,8 µg/mL
same,antibacterial activity (number of bacterium),"E. coli [3]; E. coli ATCC8739, ATCC25922, CCARM1A746, CCARM1B684, 2 μM, 2 hours, Tris-HCl pH 7.5",more excellent antibacterial activity
same,effect of adding NaCl on antibacterial activity,"E. coli [3]; E. coli ATCC 8739, 2 μM, Tris or Hepes buffer with 150 mM NaCl",negative effect of salt presence was significantly reduced
same,dose and time dependence of antibacterial activity,"E. coli [3]; E. coli ATCC 8739, 0.1-2.7 μM, 0.5 μM over time",antibacterial activity according to dose and time
same,antibacterial activity compared to Cecropin A and/or mtEC340,"E. coli [3]; E. coli ATCC8739, final concentration of 0.5 mM",enhanced antibacterial activity
same,increase in activity compared to mtEC340,"E. coli [3]; E. coli strains, 2 μM, 2 hours",≤ 4 log
same,viable bacterial cells after culturing for 2 hours,"E. coli [3]; all tested E. coli strains, 2 μM",No viable bacterial cells were detected
same,amount of bacterial cells after treatment,"E. coli [3]; colistin-resistant E. coli FORC81, 2 μM, 2 hours",below the detection limit
same,MIC,K. pneumoniae [4]; K. pneumoniae ATCC 700603,16 µg/mL
same,MIC,K. pneumoniae [4]; K. pneumoniae CCARK 10143,4 µg/mL
same,MIC,K. pneumoniae [4]; K. pneumoniae F144,16 µg/mL
same,MIC,K. pneumoniae [4]; K. pneumoniae Fil8,16 µg/mL
same,MIC,K. pneumoniae [4]; K. pneumoniae KCTO 2208,8 µg/mL
same,MIC,K. pneumoniae [4]; K. pneumoniae P1O4,16 µg/mL
